Data: the RNAGym collection of RNA variant scans (doi:10.7554/elife.90254)

B1: OR4K15 (parent)
chain: GUUAACGGUCAUAGGCCAUGGAAACUAGGAGCACCAUUUCGCUGCCAGUGAAGAAAUGAACAAAGAAAAUCUGGGCCAGGCAGGCAUCAAAAGAAAUAGUCUUGCGCUCAACCAGAAAGUCUGUAAUCAUUUUAAGGGUA

Variants of: B1
Assay: self-cleavage, relative activity (ratio to wild type); higher = more cleavage; in vitro, sequencing; the parent is a self-cleaving ribozyme

Question: Which self-cleavage does the source give for GUUAACGGUCAUAGGCCAUGGAAACUAGGAGCACCAUUUCGCUGCCUGUGAAGAAAUGAACAAAGAAAAUCUGGGCCAGGCAGGCAUCAAAAGAAAUAGUCUUGCGCUCAACCAAAAAGUCUGUAAUCAUUUUAAGGGUA here?
Answer: 0.15

Question: With GUUAACGGUCAUAGGCCAUGGAAACUAGGAGCACCAUUUCGCUGCCUGUGAAGAAAUGAACAAAGAAAAUCUGGGCCAGGCAGGCAUCAAAAGAAAUAGUCUUGCGCUCAACCAGAAAGUCUGUAAUCAUUGUAAGGGUA as the variant, how does the self-cleavage read?
Answer: 0.61

Question: For GUUAACGGUCAUAGGCCAUGGAAACUAGGAGCACCAUUUCGCUGCCUGUGAAGAAAUGAACAAAGAAAAUCUGGGCCAGGCAGGCAUCAAAAGAAAUAGUCUUGUGCUCAACCAGAAAGUCUGUAAUCAUUUUAAGGGUA, which self-cleavage is on record?
Answer: 0.14

Question: For GUUAACGGUCAUAGGCCAUGGAAACUAGGAGCACCAUUUCGCUGCCUGUAAAGAAAUGAACAAAGAAAAUCUGGGCCAGGCAGGCAUCAAAAGAAAUAGUCUUGCGCUCAACCAGAAAGUCUGUAAUCAUUUUAAGGGUA, which self-cleavage is on record?
Answer: 0.26

Question: Which self-cleavage does the source give for GUUAACGGUCAUAGGCCAUGGAAACUAGGAGCACCAUUUCGCUGCCACUGGAGAAAUGAACAAAGAAAAUCUGGGCCAGGCAGGCAUCAAAAGAAAUAGUCUUGCGCUCAACCAGAAAGUCUGUAAUCAUUUUAAGGGUA here?
Answer: 0.94

Question: With GUUAACGGUCAUAGGCCAUGGAAACUAGGAGCACCAUUUCGCUGCCACUGAAGAGAUGAACAAAGAAAAUCUGGGCCAGGCAGGCAUCAAAAGAAAUAGUCUUGCGCUCAACCAGAAAGUCUGUAAUCAUUUUAAGGGUA as the variant, how does the self-cleavage read?
Answer: 1.64

Question: For GUUAACGGUCAUAGGCCAUGGAAACUAGGAGCACCAUUUCGCUGCCUGUGAAGAAAUGAACAAAGAAAAUCUGGGCAAGGCAGGCAUCAAAAGAAAUAGUCUUGCGCUCAACCAGAAAGUCUGUAAUCAUUUUAAGGGUA, which self-cleavage is on record?
Answer: 0.69

Question: For GUUAACGGUCAUAGGCCAUGGAAACUAGGAGCACCAUUUCGCUGCCAAUGAAGAAAUGAACAAAGAAAAUCUGGGCCAGGCAGGCAUCAAUAGAAAUAGUCUUGCGCUCAACCAGAAAGUCUGUAAUCAUUUUAAGGGUA, which self-cleavage is on record?
Answer: 1.71

Question: Which self-cleavage does the source give for GUUAACGGUCAUAGGCCAUGGAAACUAGGAGCACCAUUUCGCUGCCAAUGAAGAAAUGAACAAAGAAAAUCUGGGCCAGGCAGGCAUCAAAAGAAAUAGUCUUGCGCUCAACCAGAAAGUCUGUAAUCGUUUUAAGGGUA here?
Answer: 1.14

Question: Which self-cleavage does the source give for GUUAACGGUCAUAGGCCAUGGAAACUAGGAGCACCAUUUCGCUGCCUGUGAAGAAAUGAACAAAGAAAAUCUGGGCCAGGCAGGCAUCAAAAGAAAUAGUUUUGCGCUCAACCAGAAAGUCUGUAAUCAUUUUAAGGGUA here?
Answer: 0.22

Question: With GUUAACGGUCAUAGGCCAUGGAAACUAGGAGCACCAUUUCGCUGCCAAUGAAGAAAUGAACAAAGAAGAUCUGGGCCAGGCAGGCAUCAAAAGAAAUAGUCUUGCGCUCAACCAGAAAGUCUGUAAUCAUUUUAAGGGUA as the variant, how does the self-cleavage read?
Answer: 1.7

Question: With GUUAACGGUCAUAGGCCAUGGAAACUAGGAGCACCAUUUCGCUGCCUGUGAAGAAACGAACAAAGAAAAUCUGGGCCAGGCAGGCAUCAAAAGAAAUAGUCUUGCGCUCAACCAGAAAGUCUGUAAUCAUUUUAAGGGUA as the variant, how does the self-cleavage read?
Answer: 0.75

Question: For GUUAACGGUCAUAGGCCAUGGAAACUAGGAGCACCAUUUCGCUGCCUGUGAAGAAAUGAACAAAGAAAAUCUGGGCCAGGCAGGCAUCAAAAGAAAUAGUCUUGCGCACAACCAGAAAGUCUGUAAUCAUUUUAAGGGUA, which self-cleavage is on record?
Answer: 0.01

Question: For GUUAACGGUCAUAGGCCAUGGAAACUAGGAGCACCAUUUCGCUGCCAAUGAAGAAAUGAACAAAGAAAAUCUGGGCCAGGCAGGCAUCAAAAGAAAUAGUCCUGCGCUCAACCAGAAAGUCUGUAAUCAUUUUAAGGGUA, which self-cleavage is on record?
Answer: 1.99

Question: Which self-cleavage does the source give for GUUAACGGUCAUAGGCCAUGGAAACUAGGAGCACCAUUUCGCUGCCACUGAAGAAAUGAACAAAGAAAAUCUGGGCCAGGCAGGCAUCAAAAGAAAUAGUCUUGCGCUCAACCAGAAAGUCUGUAAUCAUCUUAAGGGUA here?
Answer: 0.69

Question: Which self-cleavage does the source give for GUUAACGGUCAUAGGCCAUGGAAACUAGGAGCACCAUUUCGCUGCCAAUGAAGAAAUGAACAAAGAAAAUCUGGGCCAGGCAGGCAUCAAAAGAAAUAGUCUUGCGCUCAACCAGAAAGUCUGUAAACAUUUUAAGGGUA here?
Answer: 2.28

Question: With GUUAACGGUCAUAGGCCAUGGAAACUAGGAGCACCAUUUCGCUGCCAAUGAAGAAAUGAACAAAGUAAAUCUGGGCCAGGCAGGCAUCAAAAGAAAUAGUCUUGCGCUCAACCAGAAAGUCUGUAAUCAUUUUAAGGGUA as the variant, how does the self-cleavage read?
Answer: 1.33

Question: For GUUAACGGUCAUAGGCCAUGGAAACUAGGAGCACCAUUUCGCUGCCUGUGAAGAAAUGAACAAAGAAAAUCUGGGCCAGGCAGGCAUCAAAAGAAAUAGUCUUGCGCUCAACCAGAAAGUCUGUGAUCAUUUUAAGGGUA, which self-cleavage is on record?
Answer: 0.28

Question: Which self-cleavage does the source give for GUUAACGGUCAUAGGCCAUGGAAACUAGGAGCACCAUUUCGCUGCCUGUGAAGAAAUGAACAAAGAAAAUCUGGGCCAGGCAGGCAUCAAAAGAAAUAGUCUUGCGCUCAACCAGAAAGUCUGUAAUCACUUUAAGGGUA here?
Answer: 0.43

Question: With GUUAACGGUCAUAGGCCAUGGAAACUAGGAGCACCAUUUCGCUGCCUGUGAAGAAAUGAACAAAGAAAAUCUGGGCCAGGCAGGCAUCAAAAGAAAUAGUCUUGCGCUCAACCAGAAAGUCUGUAAUCAUUUUGAGGGUA as the variant, how does the self-cleavage read?
Answer: 1.24

Question: With GUUAACGGUCAUAGGCCAUGGAAACUAGGAGCACCAUUUCGCUGCCUGUGAAGAAAUGAACAAAGAAAAUCUGGACCAGGCAGGCAUCAAAAGAAAUAGUCUUGCGCUCAACCAGAAAGUCUGUAAUCAUUUUAAGGGUA as the variant, how does the self-cleavage read?
Answer: 0.14

Question: Which self-cleavage does the source give for GUUAACGGUCAUAGGCCAUGGAAACUAGGAGCACCAUUUCGCUGCCAAUGAAGAAAUGAACAAAGAAAAUCAGGGCCAGGCAGGCAUCAAAAGAAAUAGUCUUGCGCUCAACCAGAAAGUCUGUAAUCAUUUUAAGGGUA here?
Answer: 0.2

Question: Which self-cleavage does the source give for GUUAACGGUCAUAGGCCAUGGAAACUAGGAGCACCAUUUCGCUGCCACUGAAGAAAUGAACAGAGAAAAUCUGGGCCAGGCAGGCAUCAAAAGAAAUAGUCUUGCGCUCAACCAGAAAGUCUGUAAUCAUUUUAAGGGUA here?
Answer: 1.45

Question: Which self-cleavage does the source give for GUUAACGGUCAUAGGCCAUGGAAACUAGGAGCACCAUUUCGCUGCCUGUGAAGAAAUGAACAAAGAAAAUCUGGGCCAGGCAGGCAUCAAAAGAAAUAGUCCUGCGCUCAACCAGAAAGUCUGUAAUCAUUUUAAGGGUA here?
Answer: 1.92

Question: Which self-cleavage does the source give for GUUAACGGUCAUAGGCCAUGGAAACUAGGAGCACCAUUUCGCUGCCAAUGAAGAAAUGAACAAAGAAAAUCUGGGCCAGGCAGGCAUCAAAAGAGAUAGUCUUGCGCUCAACCAGAAAGUCUGUAAUCAUUUUAAGGGUA here?
Answer: 1.29

Question: Which self-cleavage does the source give for GUUAACGGUCAUAGGCCAUGGAAACUAGGAGCACCAUUUCGCUGCCAAUGAAGAAAUGAACAAAGAAAGUCUGGGCCAGGCAGGCAUCAAAAGAAAUAGUCUUGCGCUCAACCAGAAAGUCUGUAAUCAUUUUAAGGGUA here?
Answer: 1.49

Question: With GUUAACGGUCAUAGGCCAUGGAAACUAGGAGCACCAUUUCGCUGCCAAUGAAGAAAUGAACAAAGAAAAUCUGGGCCAGGCAGGCAUCAAAAGAAAUUGUCUUGCGCUCAACCAGAAAGUCUGUAAUCAUUUUAAGGGUA as the variant, how does the self-cleavage read?
Answer: 2.56

Question: For GUUAACGGUCAUAGGCCAUGGAAACUAGGAGCACCAUUUCGCUGCCAAUGAAGAAAUGAACAAAGAAAAUCUGGGCCAGGCAGGCAUCAGAAGAAAUAGUCUUGCGCUCAACCAGAAAGUCUGUAAUCAUUUUAAGGGUA, which self-cleavage is on record?
Answer: 0.76

Question: For GUUAACGGUCAUAGGCCAUGGAAACUAGGAGCACCAUUUCGCUGCCUGUGAAGAAAUGAACAAAGAAAAUCUGGGCCAGGCAGGCAUCAAAAGAAAUAGUCUUGCGCUCAACCAGAAAGUCUGUAGUCAUUUUAAGGGUA, which self-cleavage is on record?
Answer: 0.77

Question: With GUUAACGGUCAUAGGCCAUGGAAACUAGGAGCACCAUUUCGCUGCCUGUGAAGAAAUGAACAAAGAAAAUCUGGGCCAGGCAGGCAUCAAAAGAAAUAGUCUUGCGCUCAACCAGAAAGUCUGUAAACAUUUUAAGGGUA as the variant, how does the self-cleavage read?
Answer: 0.24

Question: With GUUAACGGUCAUAGGCCAUGGAAACUAGGAGCACCAUUUCGCUGCCUGUGAAGAAAUGAACAAAGAAAAUCUGGGCCAGGCAGGCAUCAAAAGAAAUAGUCUUGCGCUCAACCAGAAAGUCUGUAACCAUUUUAAGGGUA as the variant, how does the self-cleavage read?
Answer: 0.59

Question: Which self-cleavage does the source give for GUUAACGGUCAUAGGCCAUGGAAACUAGGAGCACCAUUUCGCUGCCAAUGAAGAAAUGAACAGAGAAAAUCUGGGCCAGGCAGGCAUCAAAAGAAAUAGUCUUGCGCUCAACCAGAAAGUCUGUAAUCAUUUUAAGGGUA here?
Answer: 0.93

Question: Which self-cleavage does the source give for GUUAACGGUCAUAGGCCAUGGAAACUAGGAGCACCAUUUCGCUGCCAAUGAAGAGAUGAACAAAGAAAAUCUGGGCCAGGCAGGCAUCAAAAGAAAUAGUCUUGCGCUCAACCAGAAAGUCUGUAAUCAUUUUAAGGGUA here?
Answer: 1.61

Question: Which self-cleavage does the source give for GUUAACGGUCAUAGGCCAUGGAAACUAGGAGCACCAUUUCGCUGCCAAUGAAGAAAUGAACAAAGAAAACCUGGGCCAGGCAGGCAUCAAAAGAAAUAGUCUUGCGCUCAACCAGAAAGUCUGUAAUCAUUUUAAGGGUA here?
Answer: 0.31

Question: With GUUAACGGUCAUAGGCCAUGGAAACUAGGAGCACCAUUUCGCUGCCUGUGAAGAAAUGAACAAAGAAAAUCUGGGCCAGGCAGGCAUCAAAAGAAAUAGUCUUGCGCUCAACCAGAAAGUCUGUAAUCAUUUUAAGGAUA as the variant, how does the self-cleavage read?
Answer: 1.61

Question: For GUUAACGGUCAUAGGCCAUGGAAACUAGGAGCACCAUUUCGCUGCCUGUGAAGAAAUGAACAAAGAAAAUCUGGGCCAGGCAGUCAUCAAAAGAAAUAGUCUUGCGCUCAACCAGAAAGUCUGUAAUCAUUUUAAGGGUA, which self-cleavage is on record?
Answer: 0.25

Question: With GUUAACGGUCAUAGGCCAUGGAAACUAGGAGCACCAUUUCGCUGCCUGUGAAGAAAUGAACAAAGAAAAUCUGGGCCAGGCAGACAUCAAAAGAAAUAGUCUUGCGCUCAACCAGAAAGUCUGUAAUCAUUUUAAGGGUA as the variant, how does the self-cleavage read?
Answer: 1.13

Question: Which self-cleavage does the source give for GUUAACGGUCAUAGGCCAUGGAAACUAGGAGCACCAUUUCGCUGCCUGUGAAGAAAUGAACAAAGAAAAUCUGGGCCAGGCAGGCAUCAAAAGAAAUAGUCUUGCGCUCAACCAGAAAGCCUGUAAUCAUUUUAAGGGUA here?
Answer: 0.28

Question: Which self-cleavage does the source give for GUUAACGGUCAUAGGCCAUGGAAACUAGGAGCACCAUUUCGCUGCCAAUGAAGAAGUGAACAAAGAAAAUCUGGGCCAGGCAGGCAUCAAAAGAAAUAGUCUUGCGCUCAACCAGAAAGUCUGUAAUCAUUUUAAGGGUA here?
Answer: 1.34

Question: Which self-cleavage does the source give for GUUAACGGUCAUAGGCCAUGGAAACUAGGAGCACCAUUUCGCUGCCUGUGAAGAAAUGAACAAAGAAAAUCUGGGCCAGGCAGGCAUCAAAAGAAAUAGUCUUGCGCUCAACCAGAAAGUCUGUAAUCAUUUUAAGGGUG here?
Answer: 0.91

Question: With GUUAACGGUCAUAGGCCAUGGAAACUAGGAGCACCAUUUCGCUGCCUGUGAAGAAAUGAACAAAGAAAAUCUGGGCCAGGCAGGCAUCAAAAGAAAUAGUCUUGCGCUCAACCAGAAAGUCAGUAAUCAUUUUAAGGGUA as the variant, how does the self-cleavage read?
Answer: 0.87
